{"source": "patent US20240141007A1", "target": "human FcRn (human) (UniProt P55899)", "sequence (P55899 24-297 limits assumed, chain 1 of 2)": "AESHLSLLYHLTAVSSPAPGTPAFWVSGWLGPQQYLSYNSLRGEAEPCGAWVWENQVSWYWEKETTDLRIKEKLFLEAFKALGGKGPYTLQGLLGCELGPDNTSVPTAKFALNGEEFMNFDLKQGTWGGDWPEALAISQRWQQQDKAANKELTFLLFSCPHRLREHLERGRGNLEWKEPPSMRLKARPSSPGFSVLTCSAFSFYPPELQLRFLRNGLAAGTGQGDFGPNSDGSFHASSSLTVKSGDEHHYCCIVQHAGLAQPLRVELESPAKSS", "sequence (P61769 21-119 limits assumed, chain 2 of 2, further chain)": "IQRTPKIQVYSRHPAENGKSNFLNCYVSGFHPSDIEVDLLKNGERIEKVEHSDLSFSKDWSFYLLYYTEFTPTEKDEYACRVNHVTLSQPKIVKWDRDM", "test": "SPR, hFcRn as ligand"}
{"substance": "Ipilimumab (antibody)", "values": [{"measurement": "Kd", "value": 518, "unit": "nM"}]}
